Experimental data as given in patent US6500916B1, “Carrier polymers migrating into target organs and drug-containing polymers” (Ono Pharmaceutical Co., Ltd., priority 1998, dated 2002).

How the values were obtained:
[1] = system: CCl4 induced liver damage; assay: Effect on CCl4 induced liver damage (plasma GPT level); assay type: in vivo; conditions: mouse plasma, 18 hours fasting after CCl4 (10% v/v in sesame oil, 10 ml/kg i.p.); tail vein injection; Free PGE1 0.065 mg/kg, polymer 1 mg/kg
Procedure: A solution of 10% (v/v) of CCl4 in sesame oil at dose of 10 ml/kg was administered into mouse abdominal cavity, and then drug (saline solution (Control), Free-PGE1 (Comparison), drug (PGE1)-containing polymer of the present invention PGE1-HZ-PLGA-HZ-Lac (reductive) (prepared in Example 6)) were injected into mouse through its tail vein at the setting dose. After the mouse had been fasted for 18 hours (25° C., water was freely given), blood was collected to assay GPT level (IU/L) in plasma.

[2] = Biodistribution of [3H]PGE1-containing polymer (Polymer P2) after tail vein injection; assay type: in vivo, mouse; conditions: i.v., 3H label; for percentage of concentration in 1 ml of plasma: mean±S.D.; for percentage of urinary excretion: Urine
Procedure: PLGA-HZ-Gal (prepared in Example 3) and PLGA-HZ-Lac (prepared in Example 5) were labeled with ^111In and were injected into mouse through its tail vein at dose of 1 mg/kg to analyze biodistribution of them. The results are shown in Tables 1 and 2 (Each value in Tables means the percentage of concentration in 1 ml of plasma, the percentage of amount of accumulation in each organ and the percentage of urinary excretion of the said PLGA derivatives (mean±S.D.), respectively at various times after administration.).
Biodistribution of [^3H]PGE1-HZ-PLGA-HZ-Gal (prepared in Example 4, degree of polymerization=97) and [^3H]PGE1-ED-PLGA-ED-Gal (Comparison: the polymer described in International J. Pharmaceutics, 155, 65-74 (1997), degree of polymerization=101) was analyzed by the same procedure as described in Experiment 1. The results are shown in Tables 3 (Invention) and 4 (Comparison) (Each value in Tables means the percentage of concentration in 1 ml of plasma, the percentage of amount of accumulation in each organ and the percentage of urinary excretion of the said [^3H]PGE1 derivatives (mean±S.D.), respectively at various times after administration.).

## CCCCCC(O)/C=C/C1C(O)CC(=O)C1CCCCCCC(=O)O (centres unmarked) [Free PGE1, PGE1, reference compound]
[1]
  GPT level: 660.89 ± 218.28 IU/L

## PGE1-HZ-PLGA-HZ-Lac (Reductive/degree of Polymerization: d^3=0, x^3=35, y^3=36, z^3=22, w^3=4)
[1]
  GPT level: 239.12 ± 77.482 IU/L

## [^3H]PGE1-HZ-PLGA-HZ-Gal (Degree of Polymerization: d^3=0, x^3=29, y^3=32, z^3=31, w^3=5) [[^3H]-PGE1-HZ-PLGA-HZ-Gal]
[2]; Kidney, 1 min.
  percentage of amount of accumulation in organ: 1.26 ± 0.23%
[2]; Kidney, 5 min.
  percentage of amount of accumulation in organ: 1.23 ± 0.06%
[2]; Kidney, 10 min.
  percentage of amount of accumulation in organ: 0.79 ± 0.14%
[2]; Kidney, 60 min.
  percentage of amount of accumulation in organ: 0.64 ± 0.22%
[2]; Liver, 1 min.
  percentage of amount of accumulation in organ: 54.42 ± 0.79%
[2]; Liver, 5 min.
  percentage of amount of accumulation in organ: 70.39 ± 3.51%
[2]; Liver, 10 min.
  percentage of amount of accumulation in organ: 80.54 ± 9.52%
[2]; Liver, 60 min. (1 hour)
  percentage of amount of accumulation in organ: 85.43 ± 3.78%
[2]; Lung, 1 min.
  percentage of amount of accumulation in organ: 1.88 ± 0.46%
[2]; Lung, 5 min.
  percentage of amount of accumulation in organ: 1.64 ± 0.56%
[2]; Lung, 10 min.
  percentage of amount of accumulation in organ: 1.00 ± 0.21%
[2]; Lung, 60 min.
  percentage of amount of accumulation in organ: 0.44 ± 0.18%
[2]; 1 min. after administration
  percentage of concentration in 1 ml of plasma: 14.33 ± 0.75%
[2]; 5 min. after administration
  percentage of concentration in 1 ml of plasma: 1.64 ± 0.51%
[2]; 10 min. after administration
  percentage of concentration in 1 ml of plasma: 0.40 ± 0.06%
[2]; 60 min. after administration
  percentage of concentration in 1 ml of plasma: 0.26 ± 0.07%
[2]; Spleen, 1 min.
  percentage of amount of accumulation in organ: 1.11 ± 0.14%
[2]; Spleen, 5 min.
  percentage of amount of accumulation in organ: 1.85 ± 0.10%
[2]; Spleen, 10 min.
  percentage of amount of accumulation in organ: 1.24 ± 0.17%
[2]; Spleen, 60 min.
  percentage of amount of accumulation in organ: 1.84 ± 0.16%
[2]; 1 min.
  percentage of urinary excretion: 0.00 ± 0.00%
[2]; 5 min.
  percentage of urinary excretion: 1.17 ± 1.01%
[2]; 10 min.
  percentage of urinary excretion: 1.79 ± 0.25%
[2]; 60 min.
  percentage of urinary excretion: 1.45 ± 0.83%
